Patent publication US20130053541A1, “METHODS FOR DISCOVERING MOLECULES THAT BIND TO PROTEINS” (LYNNTECH, INC., priority 2011, published 2013)
Where no end group is shown, it is not given here.

Target: T1, native human ESRRG protein (Estrogen-receptor related receptor gamma) (human, UniProt P62508 229-458, limits assumed)
T1 construct: the screened protein is called 'native human ESRRG protein'; also called ESSRG; ERRγ
T1 sequence (looked up): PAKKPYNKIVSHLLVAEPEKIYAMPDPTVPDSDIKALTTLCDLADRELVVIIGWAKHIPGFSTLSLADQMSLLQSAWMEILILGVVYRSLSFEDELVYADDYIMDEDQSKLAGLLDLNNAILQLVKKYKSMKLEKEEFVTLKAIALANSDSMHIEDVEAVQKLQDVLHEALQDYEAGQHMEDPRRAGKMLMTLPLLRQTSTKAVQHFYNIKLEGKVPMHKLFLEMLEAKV
Assay: peptide microarray, Iteration 2; bound ESRRG detected with fluorescent anti-ESRRG mAb
Settings: not given
Protocol: (§1) Screening was carried out typically by hybridization of the protein (1 μg/mL) against the array for 1 h at 4° C.; detection of bound protein was carried out using a fluorescently labeled anti-ESRRG mAb. (Direct labeling of ESRRG and alternative detection strategies are equally valid).
(§2) Iterative sequence expansion and arraying of 10 highest binding ligands to ESRRG from Iteration 1 was carried out and the new peptide sequences were synthesized on an array and screened against the protein, as described above. In this step, the central 2 amino acids (core) in peptide sequences were maintained unchanged while outlying amino acids (2, 3, 6, and 7) were permuted (using Tier 1 and Tier 3 substitutions) in a ‘cipher’ or ‘combination’ lock approach.

Molecule | Sample B (Probe) Signal | log2 (Sample B/Sample A)
Ac-TGKLKQDG | 2460 fluorescence intensity units | 3.55
Ac-NLLLKHPD | 2300 fluorescence intensity units | 3.41
Ac-WIKLKQND | 2340 fluorescence intensity units | 3.69
Ac-HYKLKQHE | 1300 fluorescence intensity units | 2.97
Ac-LFKLKQDG | 2780 fluorescence intensity units | 3.32
Ac-DNNYLLLL | 2240 fluorescence intensity units | 3.84

Further lines, results first:

Sample B (Probe) Signal | log2 (Sample B/Sample A) | Molecule
5440 fluorescence intensity units | 3.32 | Ac-FFKGHFKF
19000 fluorescence intensity units | 4.56 | Ac-HRSYPRRG
2860 fluorescence intensity units | 3.97 | Ac-WANYLLPP
2200 fluorescence intensity units | 2.91 | Ac-WNSYPRND
13800 fluorescence intensity units | 4.88 | Ac-NFNYLLPH
5020 fluorescence intensity units | 4.08 | Ac-EDSYPRDG
4800 fluorescence intensity units | 4.9 | Ac-DINFSLGI
7240 fluorescence intensity units | 6.47 | Ac-HDNMYLNE
4370 fluorescence intensity units | 4.45 | Ac-NNNFSLHM
5590 fluorescence intensity units | 4.27 | Ac-PDSYPRWG
2420 fluorescence intensity units | 3.47 | Ac-LFLLQQDD
1750 fluorescence intensity units | 3.25 | Ac-HLKLKQEN

Target: T2, native human ESRRG protein (Homo sapiens, UniProt P62508)
T2 sequence (P62508 1-458): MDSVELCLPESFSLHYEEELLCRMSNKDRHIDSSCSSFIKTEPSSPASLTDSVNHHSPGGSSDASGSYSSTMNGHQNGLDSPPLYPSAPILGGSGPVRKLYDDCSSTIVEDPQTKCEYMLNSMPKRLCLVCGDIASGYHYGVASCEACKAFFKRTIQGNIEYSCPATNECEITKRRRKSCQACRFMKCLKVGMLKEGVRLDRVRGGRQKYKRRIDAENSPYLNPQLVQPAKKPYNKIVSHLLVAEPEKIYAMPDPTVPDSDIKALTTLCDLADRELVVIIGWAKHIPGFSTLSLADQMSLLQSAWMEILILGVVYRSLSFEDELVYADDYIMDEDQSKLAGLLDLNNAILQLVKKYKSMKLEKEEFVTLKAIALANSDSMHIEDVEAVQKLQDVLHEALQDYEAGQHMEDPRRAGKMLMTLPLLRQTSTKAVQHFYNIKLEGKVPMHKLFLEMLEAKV
Assay: peptide microarray screening for ESRRG binding (Iteration 1 and 2)
Settings: Iteration 1 primary screen
Excerpt: The BLOSUM62 matrix was divided into Tiers based, with Tier 1 comprising “most conserved” (lowest penalty) and Tier 3 comprising “least conserved” (highest penalty) mutations observed in nature. Sequences for microarray production for the primary stage (Iteration 1) of screening for protein binding were created by permuting AA positions 4 and/or 5 only (i.e., core of sequence) of parent 8-mer peptides using Tier 1 and Tier 3 substitutions. This allows the systematic variation of the sequence in order to identify the most important motif within the larger candidate ligand sequence that is needed for binding the target protein. All peptides on the array were grown from the C→N terminal, with the exposed N-terminal amino acid masked by an acetyl group to prevent folding of the sequence and enable full presentation of the peptide to its target protein.
as §1
Highest binders (based on relative fluorescence signal) were selected and iteratively sequence expanded and arrayed (Iteration 2); and ESRRG binding sequences were selected as above. For iterative arrays, the core positions (AA 4 and 5) were kept unchanged while the outer amino acids (2, 3, 6, and/or 7) were permuted using Tier 3 substitutions.
Daughter candidate ligands and their new Tier 3 and/or Tier 1 based combinations were synthesized in situ on an addressable peptide microarray and screened against native human ESRRG protein in order to determine sequences that bind to this protein. Bound protein was detected by a fluorescently labeled anti-ESRRG mAb. Results are obtained in fluorescence intensity units which were used to rank the peptide ligands. Excess (100×) competing biological matrices (human serum, HSA/BSA or bacterial protein extract) were used as backgrounds to select for specific ligands to the protein. Other competing proteins can be added to background for specificity selection and directed evolution of ligands.
as §2, with “approach. Further affinity maturation of sequence was observed, with multifold enhancement in binding signal of Iteration 2 sequences (i.e., Granddaughters) compared to their respective parents from Iteration 1 (i.e., Daughters) on the same array.” for “approach.”

Molecule | log2 (Sample B/Sample A)
Ac-AANMFLLL-NH2 (C-terminus assumed) | 5.37
Ac-IKQNHNNS-NH2 (C-terminus assumed) | 9.63
Ac-AIRLHLMG-NH2 (C-terminus assumed) | 5.07

Same assay, conditions: Iteration 1 primary screen; fluorescence intensity units

Molecule | Sample A (Bkgd) Signal | Sample B (Probe) Signal
Ac-AANMFLLL-NH2 (C-terminus assumed) | 42.26 | 1,752.81
ANNLWLLH | 41.92 | 1,606.54
AANNYLLL | 31.22 | 3,436.10
AANYVLLL | 14.74 | 2,199.01
NIKVHANN | 9.00 | –
Ac-IKQNHNNS-NH2 (C-terminus assumed) | 1.00 | 793.75

The next lines start with the values.

Sample A (Bkgd) Signal | Sample B (Probe) Signal | Molecule
16.99 | 1,217.01 | AANMSLLL
13.51 | 1,093.06 | ANNILLLH
1.00 | – | ANNSQLLH
65.96 | 1,997.75 | ANNVLLLH
25.76 | 1,042.20 | NSLSWHLL
22.22 | 3,763.81 | AANYLLLL
20.06 | 1,259.63 | ANNSWLLH
28.09 | 942.75 | Ac-AIRLHLMG-NH2 (C-terminus assumed)
14.95 | – | LLHLQKSQ

Same assay, conditions: Iteration 2 iterative screen; fluorescence intensity units

Molecule | Sample A (Bkgd) Signal | Sample B (Probe) Signal
HRSYPRRG | 805.42 | 19,001.58
FWKGHFDF | 230.42 | 1,455.83
WNSYPRND | 292.56 | 2,198.94
RLLHYGSY | 290.67 | 1,203.13
WLLLKHGL | 222.13 | –
AHNYLLEH | 115.46 | –
FFKGHFKF | 543.19 | 5,435.29
DRSYPRHT | 68.94 | –
HNNYLLNN | 190.35 | –
PFKLKQGN | 1,523.23 | 6,982.96
NFNYLLPH | 470.56 | 13,817.90

Further lines, results first:

Sample A (Bkgd) Signal | Sample B (Probe) Signal | Molecule
619.96 | 2,611.56 | WRSYPRRA
158.25 | – | FWNMYLNP
202.29 | – | YFLLQQGP
115.25 | – | AFNMYLDE
184.58 | – | MYKLKQDN
181.65 | 2,343.96 | WIKLKQND
107.88 | – | HNNFSLEP
209.10 | 1,231.15 | WGKLKQGE
